From IntAct's records for PubMed 19400808

B1: Nitrogen regulatory protein (Escherichia coli (strain K12)), P69829 (parent)
chain: MTNNDTTLQLSSVLNRECTRSRVHCQSKKRALEIISELAAKQLSLPPQVVFEAILTREKMGSTGIGNGIAIPHGKLEEDTLRAVGVFVQLETPIAFDAIDNQPVDLLFALLVPADQTKTHLHTLSLVAKRLADKTICRRLRAAQSDEELYQIITDTEGTPDEA
partner: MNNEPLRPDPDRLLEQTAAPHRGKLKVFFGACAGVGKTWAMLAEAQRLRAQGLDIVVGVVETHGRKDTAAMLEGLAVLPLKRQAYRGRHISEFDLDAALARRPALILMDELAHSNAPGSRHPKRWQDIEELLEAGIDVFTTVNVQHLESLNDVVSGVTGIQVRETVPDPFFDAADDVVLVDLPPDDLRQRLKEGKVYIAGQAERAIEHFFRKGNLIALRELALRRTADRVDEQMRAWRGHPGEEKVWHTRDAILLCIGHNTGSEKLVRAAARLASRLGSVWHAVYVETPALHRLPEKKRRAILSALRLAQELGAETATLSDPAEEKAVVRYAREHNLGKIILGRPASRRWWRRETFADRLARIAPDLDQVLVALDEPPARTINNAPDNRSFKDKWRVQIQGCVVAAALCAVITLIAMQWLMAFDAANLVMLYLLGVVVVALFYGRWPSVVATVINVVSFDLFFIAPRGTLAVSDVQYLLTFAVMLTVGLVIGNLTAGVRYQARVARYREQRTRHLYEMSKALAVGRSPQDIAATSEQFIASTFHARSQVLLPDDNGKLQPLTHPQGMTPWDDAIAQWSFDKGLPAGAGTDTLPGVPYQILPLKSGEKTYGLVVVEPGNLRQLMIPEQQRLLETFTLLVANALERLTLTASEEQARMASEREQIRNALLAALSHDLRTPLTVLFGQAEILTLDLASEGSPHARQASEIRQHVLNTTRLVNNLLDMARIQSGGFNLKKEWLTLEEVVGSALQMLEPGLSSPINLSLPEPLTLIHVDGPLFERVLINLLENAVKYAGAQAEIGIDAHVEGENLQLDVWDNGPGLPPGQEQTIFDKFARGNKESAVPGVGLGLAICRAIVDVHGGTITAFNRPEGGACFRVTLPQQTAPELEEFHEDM

Variants of: B1
Details: with kdpd_ecoli kdpD

Row | Variant | effect of a mutation on the interaction
1 | H73A | increasing interaction strength
